B1: 88.1 (6/5AL) aptamer (structured_RNA)
RNA: GGGAAAAGCGAAUCAUACACAAGACAUUGACCAAAAGGGUCGAUAGCGUCGUGUAGAUUGCACCCAUGACUGAGCUACUGCCAAAUCCACCCACGGGCAUAAGGUAUUUAAUUCCAUA
B2: Arbitrary control RNA (ssRNA)
RNA: GGGAAAAGCGAAUCAUACACAAGAAAUUUGGACUUUCCGCCCUUCUUGGCCUUUAUGAGGAUCUCUCUGAUUUUUCUUGCGUCGAGUUUUCCGGGGGCAUAAGGUAUUUAAUUCCAUA

Key:
[1] = biological target: T1, HIV-1 reverse transcriptase, subtype B (HIV-1 subtype B strain HXB2, UniProt P04585;P04585 588-1147;588-1027); assay: filter binding
[2] = biological target: T1, HIV-1 reverse transcriptase, subtype B; assay: filter binding; remark: listed apart in the source

| Binder | Kd [1] [nM] | binding result [2] |
| --- | --- | --- |
| B1 | 81 | – |
| B2 | – | no binding |

Reference: article PMC5449596
